# Data as given in publication PMC9481538, “The interaction between LC8 and LCA5 reveals a novel oligomerization function of LC8 in the ciliary-centrosome system” (Scientific Reports, 2022).
# Where no end group is shown, it is not given here. The star is where a group is joined. FITC = O=C1OC2(c3ccc(O)cc3Oc3cc(O)ccc32)c2ccc(NC(=S)*)cc21
# Assays:
# [1] = target: T1, Dynein light chain LC8 (DYNLL2), 6xHis-tagged (UniProt Q96FJ2 1-89); assay: fluorescence polarisation; competitive: 50 nM FITC-BMF peptide with LC8 at 80% saturation (12 μM), titrated with LCA5 peptide from 500 μM in two-fold dilutions; 25 °C, PBS, 2 mM TCEP, 0.05% Brij; triplicates; conditions: both partners purified
# T1 construct: Dynein light chain LC8 (DYNLL2), an 89-residue protein; pEV vector with N-terminal 6xHis-tag; The calculated dimer mass of 20.7 kDa fits the untagged protein, so the His tag may have been removed; source: E. coli BL21 (DE3) Rosetta, purified (Ni IMAC, anion exchange on HiTrap Q-HP, SEC on Superdex 75)
# T1 sequence (Q96FJ2 whole entry, looked up): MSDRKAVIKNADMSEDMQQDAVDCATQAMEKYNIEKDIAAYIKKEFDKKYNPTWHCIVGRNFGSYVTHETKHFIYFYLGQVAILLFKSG
# [2] = target: T1, Dynein light chain LC8 (DYNLL2), …; assay: ITC; MBP-fused LCA5 construct in the cell, LC8 injected, 37 injections of 1 μl; 37 °C, PBS pH 7.4, 1 mM TCEP; conditions: both partners purified
# [3] = target: the molecule itself; assay: SEC; Superose 6 Increase 10/300, DPBS with 200 μM TCEP; LC8 or sLCA5-WT alone; masses estimated from a calibration curve
Binder,binding result [1],Kd [2],stoichiometry N [3]
{FITC}-TSQEDKATQTL (also called BMF peptide; fluorescein labeled BMF peptide) [FITC-labelled BMF (Bcl-2-modifying factor) peptide (TSQEDKATQTL)],binds,,
"sLCA5-ΔVQT (domain or fragment, human (cDNA library from HEK293), UniProt Q86VQ0 96-430, looked up, position 333 worked out from the printed motif limits; Made by quick-change mutagenesis from sLCA5-WT; also called ΔVQT mutant; source: E. coli BL21 (DE3) Rosetta, purified (amylose resin, IMAC); clarified lysate for the pull-down; not shown: MBP, N-terminal, kept; His6, C-terminal, kept) DTDLVTKRILSARLLKINELQNEVSELQVKLAELLKENKSLKRLQYRQEKALNKFEDAENEISQLIFRHNNEITALKERLRKSQEKERATEKRVKDTESELFRTKFSLQKLKEISEARHLPERDDLAKKLVSAELKLDDTERRIKELSKNLELSTNSFQRQLLAERKRAYEAHDENKVLQKEVQRLYHKLKEKERELDIKNIYSNRLPKSSPNKEKELALRKNAACQSDFADLCTKGAAAMEDFKPEEYPLTPETIMCYENKWEEPGHLTLDLQSQKQDRHGEAGILNPIMEREEKFVTDEELHVVKQEVEKLEDEWEREELDKKQKEKASLLER",,1220 ± 80 nM,
"sLCA5-ΔCQS (domain or fragment, human (cDNA library from HEK293), UniProt Q86VQ0 96-430, looked up, position 321 worked out from the printed motif limits; Made by quick-change mutagenesis from sLCA5-WT; also called ΔCQS mutant; source: E. coli BL21 (DE3) Rosetta, purified (amylose resin, IMAC); clarified lysate for the pull-down; not shown: MBP, N-terminal, kept; His6, C-terminal, kept) DTDLVTKRILSARLLKINELQNEVSELQVKLAELLKENKSLKRLQYRQEKALNKFEDAENEISQLIFRHNNEITALKERLRKSQEKERATEKRVKDTESELFRTKFSLQKLKEISEARHLPERDDLAKKLVSAELKLDDTERRIKELSKNLELSTNSFQRQLLAERKRAYEAHDENKVLQKEVQRLYHKLKEKERELDIKNIYSNRLPKSSPNKEKELALRKNAAAAADFADLCTKGVQTMEDFKPEEYPLTPETIMCYENKWEEPGHLTLDLQSQKQDRHGEAGILNPIMEREEKFVTDEELHVVKQEVEKLEDEWEREELDKKQKEKASLLER",,680 ± 80 nM,
"sLCA5-WT (LCA5 96-430 with N-terminal MBP and C-terminal 6xHis) (domain or fragment, human (cDNA library from HEK293), UniProt Q86VQ0 96-430, looked up, Monomer of the construct 84 kDa; also called wild-type LCA5 fragment; source: E. coli BL21 (DE3) Rosetta, purified (amylose resin, IMAC); clarified lysate for the pull-down; not shown: MBP, N-terminal, kept; His6, C-terminal, kept) DTDLVTKRILSARLLKINELQNEVSELQVKLAELLKENKSLKRLQYRQEKALNKFEDAENEISQLIFRHNNEITALKERLRKSQEKERATEKRVKDTESELFRTKFSLQKLKEISEARHLPERDDLAKKLVSAELKLDDTERRIKELSKNLELSTNSFQRQLLAERKRAYEAHDENKVLQKEVQRLYHKLKEKERELDIKNIYSNRLPKSSPNKEKELALRKNAACQSDFADLCTKGVQTMEDFKPEEYPLTPETIMCYENKWEEPGHLTLDLQSQKQDRHGEAGILNPIMEREEKFVTDEELHVVKQEVEKLEDEWEREELDKKQKEKASLLER",,760 ± 60 nM,~4
